Here are results for 3 molecules from US20140030278A1 (QUIAPEG PHARMACEUTICALS, published 2014).

The target in test [1] is T1, Recombinant human TNF-alpha (human, UniProt P01375 77-233).
T1 construct: Bought reagent; also called rhTNF-alpha; TNF-α
The experiment in a line: pre-incubation with 2.9 ng/ml rhTNF-alpha, ELISA of unbound rhTNF-alpha. As for the experimental part:
(§1) A fixed concentration of 2.9 ng/ml rhTNF-alpha was used in all incubations. PEGylation was conducted in 5 time molar excess (5 eq) or 10 time molar excess (10 eq) of PEG20 compared etanercept. IC₅₀ is expressed as gram etanercept per ml.
(§2) Recombinant human TNF-alpha (rhTNF-alpha; AbCam PLC, Cambridge, UK; at a fixed concentration of 2.9 ng/ml) was mixed with different concentrations (29000 ng/ml—56.6 pg/ml) of non-PEGylated etanercept, PEG20-etanercept (5 eq) or PEG20-etanercept (10 eq). The pre-incubation mixtures were incubated in a refrigerator at 4-8° C. overnight. The amount of unbound rhTNF-alpha was analysed with a sensitive enzyme-linked immunosorbent assay (ELISA). In brief, 96-well plates (MaxiSorb, Nunc, Roskilde, Denmark) were used for the ELISA. Plates were coated with two anti-TNF-alpha monoclonal antibodies (TNF3/4, Mabtech AB, Nacka Strand, Sweden) diluted in PBS, pH 7.4, to a final concentration of 2 μg/ml. The 96-well plates were incubated in a refrigerator at 4-8° C. overnight. […] The optical density of the resultant yellow color was measured in a spectrophotometer at 450 nm.
Background: In an ELISA, binding on a coated surface is turned into a signal by an enzyme label.

For test [2], the target named is T1, Recombinant human TNF-alpha. The experiment in a line: pre-incubation with 2.9 ng/ml rhTNF-alpha, ELISA of unbound rhTNF-alpha, 4-parameter fit. As to the method:
as §1, §2

T1 sequence (P01375 77-233 limits assumed): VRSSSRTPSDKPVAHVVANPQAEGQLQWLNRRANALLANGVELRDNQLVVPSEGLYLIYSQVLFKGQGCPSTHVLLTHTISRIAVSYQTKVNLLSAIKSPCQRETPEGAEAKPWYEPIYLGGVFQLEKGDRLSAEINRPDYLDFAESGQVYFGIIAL

B1: etanercept (ENBREL®), non-PEGylated (Fc fusion)
chain: LPAQVAFTPYAPEPGSTCRLREYYDQTAQMCCSKCSPGQHAKVFCTKTSDTVCDSCEDSTYTQLWNWVPECLSCGSRCSSDQVETQACTREQNRICTCRPGWYCALSKQEGCRLCAPLRKCRPGFGVARPGTETSDVVCKPCAPGTFSNTTSSTDICRPHQICNVVAIPGNASMDAVCTSTSPTRSMAPGAVHLPQPVSTRSQHTQPTPEPSTAPSTSFLLPMGPSPPAEGSTGDEPKSCDKTHTCPPCPAPELLGGPSVFLFPPKPKDTLMISRTPEVTCVVVDVSHEDPQVKFNWYVDGVQVHNAKTKPREQQYNSTYRVVSVLTVLHQNWLDGKEYKCKVSNKALPAPIEKTISKAKGQPREPQVYTLPPSREEMTKNQVSLTCLVKGFYPSDIAVEWESNGQPENNYKTTPPVLDSDGSFFLYSKLTVDKSRWQQGNVFSCSVMHEALHNHYTQKSLSLSPGK
notes: Commercial ENBREL (Wyeth Europa Ltd); also called etanercept (non-PEGylated); non-PEGylated etanercept
In the case of B1, the binding result in test [1] is recorded as “binds”.

B2: PEG20-etanercept (5 eq) (Fc fusion)
chain: LPAQVAFTPYAPEPGSTCRLREYYDQTAQMCCSKCSPGQHAKVFCTKTSDTVCDSCEDSTYTQLWNWVPECLSCGSRCSSDQVETQACTREQNRICTCRPGWYCALSKQEGCRLCAPLRKCRPGFGVARPGTETSDVVCKPCAPGTFSNTTSSTDICRPHQICNVVAIPGNASMDAVCTSTSPTRSMAPGAVHLPQPVSTRSQHTQPTPEPSTAPSTSFLLPMGPSPPAEGSTGDEPKSCDKTHTCPPCPAPELLGGPSVFLFPPKPKDTLMISRTPEVTCVVVDVSHEDPQVKFNWYVDGVQVHNAKTKPREQQYNSTYRVVSVLTVLHQNWLDGKEYKCKVSNKALPAPIEKTISKAKGQPREPQVYTLPPSREEMTKNQVSLTCLVKGFYPSDIAVEWESNGQPENNYKTTPPVLDSDGSFFLYSKLTVDKSRWQQGNVFSCSVMHEALHNHYTQKSLSLSPGK
modifications: 20 KDa PEG (PEG20) conjugated via NHS-ester PEG reagent at 5 times molar excess; sites not stated
notes: also called PEGylated etanercept
Regarding B2, the “fold IC50 against non-PEGylated etanercept” value in test [2] is less than 2 fold.

B3: PEG20-etanercept (10 eq) (Fc fusion)
chain: LPAQVAFTPYAPEPGSTCRLREYYDQTAQMCCSKCSPGQHAKVFCTKTSDTVCDSCEDSTYTQLWNWVPECLSCGSRCSSDQVETQACTREQNRICTCRPGWYCALSKQEGCRLCAPLRKCRPGFGVARPGTETSDVVCKPCAPGTFSNTTSSTDICRPHQICNVVAIPGNASMDAVCTSTSPTRSMAPGAVHLPQPVSTRSQHTQPTPEPSTAPSTSFLLPMGPSPPAEGSTGDEPKSCDKTHTCPPCPAPELLGGPSVFLFPPKPKDTLMISRTPEVTCVVVDVSHEDPQVKFNWYVDGVQVHNAKTKPREQQYNSTYRVVSVLTVLHQNWLDGKEYKCKVSNKALPAPIEKTISKAKGQPREPQVYTLPPSREEMTKNQVSLTCLVKGFYPSDIAVEWESNGQPENNYKTTPPVLDSDGSFFLYSKLTVDKSRWQQGNVFSCSVMHEALHNHYTQKSLSLSPGK
modifications: 20 KDa PEG (PEG20) conjugated via NHS-ester PEG reagent at 10 times molar excess; sites not stated
notes: as for B2
As for B3, the “fold IC50 against non-PEGylated etanercept” value in test [2] was less than 2 fold.
